The source of these data is article PMC3909270, “The basic keratin 10-binding domain of the virulence-associated pneumococcal serine-rich protein PsrP adopts a novel MSCRAMM fold” (Open Biology, 2014).

Sequences and labels used below:
B1: Strep-Tag-II BR_(187–385) (KRT10-binding domain of the pneumococcal serine-rich repeat protein PsrP) [S. pneumoniae TIGR4] / KRT10 tail-rod-2B domain (KRT10-TRD) [human] (parent complex)
chain 1: FSGNTIVNGAPAINASLNIAKSETKVYTGEGVDSVYRVPIYYKLKVTNDGSKLTFTYTVTYVNPKTNDLGNISSMRPGYSIYNSGTSTQTMLTLGSDLGKPSGVKNYITDKNGRQVLSYNTSTMTTQGSGYTWGNGAQMNGFFAKKGYGLTSSWTVPITGTDTSFTFTPYAARTDRIGINYFNGGGKVVESSTTSQSLS
chain 2: LKQSLEASLAETEGRYCVQLSQIQAQISALEEQLQQIRAETECQNTEYQQLLDIKIRLENEIQTYRSLLEGEGSSGGGGRGGGSFGGGYGGGSSGGGSSGGGHGGGHGGSSGGGYGGGSSGGGSSGGGYGGGSSSGGHGGSSSGGYGGGSSGGGGGGYGGGSSGGGSSSGGGYGGGSSSGGHKSSSSGSVGESSS

Variants of B1 are the subject of the experiment. Description: ELISA; KRT10-TRD coated in wells of ELISA plates; parent: 1; read off a plot. (In general: An ELISA detects its analyte on a solid surface through an enzyme-linked reagent.)
Consider chain 1 FSGNTIVNGAPAINASLNIAKSETKVYTGEGVDSVYRVPIYYKLKVTNDGSKLTFTYTVTYVNPKTNDLGNISSMRPGYSIYNSGTSTQTMLTLGSDLGKPSGVKNYITDKNGRQVLSYNTSTMTTQGSGYTWGAGAQMNGFFAKKGYGLTSSWTVPITGTDTSFTFTPYAARTDRIGINYFNGGGKVVESSTTSQSLS [chain 1 N135A], for which the response was about 1.1 normalized absorbance.
As for chain 1 FSGNTIVNGAPAINASLNIAKSETKVYTGEGVDSVYRVPIYYKLAVTNDGSKLTFTYTVTYVNPKTNDLGNISSMRPGYSIYNSGTSTQTMLTLGSDLGKPSGVKNYITDKNGRQVLSYNTSTMTTQGSGYTWGNGAQMNGFFAKKGYGLTSSWTVPITGTDTSFTFTPYAARTDRIGINYFNGGGKVVESSTTSQSLS [chain 1 K45A], the response was about 0.97 normalized absorbance.
